Measurements as given in the supplement of paper PMC9112550, “Optimization of the antimicrobial peptide Bac7 by deep mutational scanning” (BMC Biology, 2022).

system: Escherichia coli TOP10; test: shrunken log2 fold change of peptide-encoding DNA abundance (4.5 h post-induction vs induction); higher = less antimicrobial activity (less host growth inhibition); conditions: time post-induction: 4.5 h; library: site-saturation at positions 5, 18, 19, 20
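Also: peptides expressed intracellularly from a pBAD plasmid library in pooled LB shake-flask culture, induced with 0.3% L-arabinose, DNA abundance read by NGS, three biological replicates, DESeq2 with apeglm shrinkage.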

| Sequence | shrunken log2 fold change |
| --- | --- |
| RRIRRRPPRLPRPRPRPFDWPRP | 0.0636 |
| RRIRYRPPRLPRPRPRPVPGPRP | -0.151 |
| RRIRWRPPRLPRPRPRPDMGPRP | 0.454 |
| RRIRDRPPRLPRPRPRPEGFPRP | 0.638 |
| RRIRYRPPRLPRPRPRPAQEPRP | 0.075 |
| RRIRQRPPRLPRPRPRPQGGPRP | 0.00902 |
| RRIRKRPPRLPRPRPRPDTRPRP | 0.0202 |
| RRIRLRPPRLPRPRPRPGQRPRP | 0.0889 |
| RRIRCRPPRLPRPRPRPYVHPRP | -1.53 |
| RRIRMRPPRLPRPRPRPHMKPRP | -0.158 |
| RRIRNRPPRLPRPRPRPPNFPRP | -0.0236 |
| RRIRARPPRLPRPRPRPHLSPRP | 0.0969 |
| RRIRSRPPRLPRPRPRPPNHPRP | -0.16 |
| RRIRSRPPRLPRPRPRPDRPPRP | -0.0605 |
| RRIRMRPPRLPRPRPRPETIPRP | 0.0625 |
| RRIRWRPPRLPRPRPRPMLCPRP | 0.216 |
| RRIRERPPRLPRPRPRPHCFPRP | 0.0259 |
| RRIRPRPPRLPRPRPRPDPPPRP | 0.249 |
| RRIRDRPPRLPRPRPRPPKGPRP | 0.644 |
| RRIRCRPPRLPRPRPRPSGRPRP | 0.235 |
| RRIRQRPPRLPRPRPRPWALPRP | -0.0992 |
| RRIRTRPPRLPRPRPRPVAWPRP | 0.217 |

| Sequence | shrunken log2 fold change |
| --- | --- |
| RRIRYRPPRLPRPRPRPWAAPRP | -0.0914 |
| RRIRMRPPRLPRPRPRPMDRPRP | -0.0181 |
| RRIRKRPPRLPRPRPRPDYMPRP | 0.0305 |
| RRIRCRPPRLPRPRPRPQRMPRP | -0.0914 |
| RRIRFRPPRLPRPRPRPDVMPRP | -0.0908 |
| RRIRARPPRLPRPRPRPLFQPRP | 0.0426 |
| RRIRPRPPRLPRPRPRPVRCPRP | 0.545 |
| RRIRFRPPRLPRPRPRPFMDPRP | -0.00928 |
| RRIRCRPPRLPRPRPRPVYMPRP | -0.788 |
| RRIRDRPPRLPRPRPRPCWYPRP | -0.369 |
| RRIRKRPPRLPRPRPRPLCGPRP | 0.367 |
| RRIRGRPPRLPRPRPRPKTVPRP | 0.662 |
| RRIRPRPPRLPRPRPRPKIDPRP | 0.0162 |
| RRIRHRPPRLPRPRPRPWFAPRP | -0.217 |
| RRIRGRPPRLPRPRPRPHVDPRP | 0.0583 |
| RRIRTRPPRLPRPRPRPMSAPRP | -0.152 |
| RRIRMRPPRLPRPRPRPRKVPRP | 0.767 |
| RRIRIRPPRLPRPRPRPYQQPRP | -0.0163 |
| RRIRGRPPRLPRPRPRPGISPRP | 0.0483 |
| RRIRLRPPRLPRPRPRPQQLPRP | -0.106 |
| RRIRWRPPRLPRPRPRPEQPPRP | 0.157 |
| RRIRFRPPRLPRPRPRPASVPRP | 0.344 |

| Sequence | shrunken log2 fold change |
| --- | --- |
| RRIRQRPPRLPRPRPRPIWAPRP | -0.0792 |
| RRIRTRPPRLPRPRPRPQMNPRP | -0.345 |
| RRIRERPPRLPRPRPRPPKVPRP | -0.0931 |
| RRIRRRPPRLPRPRPRPIRYPRP | 0.0578 |
| RRIRTRPPRLPRPRPRPGKDPRP | 0.0234 |
| RRIRDRPPRLPRPRPRPLHIPRP | -0.0915 |
| RRIRTRPPRLPRPRPRPTVYPRP | -0.0364 |
| RRIRTRPPRLPRPRPRPFLIPRP | -0.378 |
| RRIRARPPRLPRPRPRPMMPPRP | 0.307 |
| RRIRPRPPRLPRPRPRPKQLPRP | 0.0245 |
| RRIRNRPPRLPRPRPRPGNLPRP | -0.186 |
| RRIRTRPPRLPRPRPRPEAAPRP | 0.574 |
| RRIRMRPPRLPRPRPRPIHRPRP | -0.154 |
| RRIRSRPPRLPRPRPRPHVPPRP | -0.149 |
| RRIRARPPRLPRPRPRPDDTPRP | 0.468 |
| RRIRKRPPRLPRPRPRPDIHPRP | 0.167 |
| RRIRARPPRLPRPRPRPIRQPRP | -0.00194 |
| RRIRLRPPRLPRPRPRPTWTPRP | -0.0607 |
| RRIRMRPPRLPRPRPRPGFTPRP | 0.00309 |
| RRIRMRPPRLPRPRPRPGCMPRP | 0.968 |
| RRIRDRPPRLPRPRPRPYTSPRP | 0.0448 |
| RRIRSRPPRLPRPRPRPGNGPRP | -0.0508 |

| Sequence | shrunken log2 fold change |
| --- | --- |
| RRIRRRPPRLPRPRPRPELYPRP | 0.247 |
| RRIRYRPPRLPRPRPRPKPGPRP | 0.221 |
| RRIRDRPPRLPRPRPRPMHEPRP | 0.0698 |
| RRIRGRPPRLPRPRPRPEKPPRP | 0.316 |
| RRIRKRPPRLPRPRPRPTDTPRP | 0.261 |
| RRIRNRPPRLPRPRPRPDDQPRP | 0.0463 |
| RRIRIRPPRLPRPRPRPPQCPRP | -0.244 |
| RRIRKRPPRLPRPRPRPPMDPRP | 0.587 |
| RRIRARPPRLPRPRPRPPSVPRP | 0.479 |
| RRIRFRPPRLPRPRPRPFFFPRP | 0.121 |
| RRIRERPPRLPRPRPRPGGYPRP | -0.563 |
| RRIRSRPPRLPRPRPRPMPFPRP | -0.0591 |
| RRIRVRPPRLPRPRPRPCVWPRP | -0.0237 |
| RRIRYRPPRLPRPRPRPWKRPRP | 0.047 |
| RRIRCRPPRLPRPRPRPPWNPRP | -0.0539 |
| RRIRARPPRLPRPRPRPCWLPRP | 0.294 |
| RRIRTRPPRLPRPRPRPKPEPRP | 0.0154 |
| RRIRGRPPRLPRPRPRPWTRPRP | -0.0814 |
| RRIRWRPPRLPRPRPRPPQEPRP | 0.567 |
| RRIRTRPPRLPRPRPRPHDFPRP | 0.0369 |
| RRIRSRPPRLPRPRPRPRASPRP | 0.346 |
| RRIRIRPPRLPRPRPRPGQIPRP | -0.0559 |

| Sequence | shrunken log2 fold change |
| --- | --- |
| RRIRFRPPRLPRPRPRPLWKPRP | -0.0606 |
| RRIRNRPPRLPRPRPRPGGMPRP | -0.0941 |
| RRIRPRPPRLPRPRPRPQHTPRP | 0.769 |
| RRIRNRPPRLPRPRPRPCMHPRP | -0.0807 |
| RRIRLRPPRLPRPRPRPPLHPRP | 0.456 |
| RRIRRRPPRLPRPRPRPRYYPRP | -0.438 |
| RRIRMRPPRLPRPRPRPKHDPRP | 0.43 |
| RRIRERPPRLPRPRPRPQYEPRP | -0.624 |
| RRIRTRPPRLPRPRPRPATFPRP | -0.129 |
| RRIRWRPPRLPRPRPRPYKTPRP | -0.0554 |
| RRIRDRPPRLPRPRPRPAHCPRP | -0.0402 |
| RRIRRRPPRLPRPRPRPHKCPRP | -0.346 |
| RRIRIRPPRLPRPRPRPSDSPRP | -0.0385 |
| RRIRLRPPRLPRPRPRPHCKPRP | -0.708 |
| RRIRCRPPRLPRPRPRPKASPRP | -0.00163 |
| RRIRERPPRLPRPRPRPIITPRP | -0.867 |
| RRIRFRPPRLPRPRPRPEQVPRP | 0.0138 |
| RRIRERPPRLPRPRPRPDVFPRP | -0.0359 |
| RRIRTRPPRLPRPRPRPASYPRP | -0.347 |
| RRIRMRPPRLPRPRPRPWWPPRP | 0.445 |
| RRIRGRPPRLPRPRPRPMFPPRP | 0.193 |
